Reference: publication PMC5942852 (PLoS Computational Biology, 2018)
Numbering of substitutions follows the chain as printed. Names and notes keep the numbering of the source.

Experiments:
Bee Hyaluronidase [1] = target: T1, Bee Hyaluronidase (Apis mellifera (honeybee)); assay: SPR; ProteOn XPR36 (Bio-Rad), GLC chip; IgG captured on amine-coupled anti-human capture antibody (Human Antibody Capture Kit), antigen as analyte; 1x HBS-EP+ pH 7.4 with BSA 1 mg/ml; equilibrium or kinetic Langmuir model; conditions: both partners purified
T1 construct: also called the main allergen in bee venom

Bee Hyaluronidase [2] = target: T1, Bee Hyaluronidase; assay: SPR; Biacore 4000, CM5 chip; IgG captured on amine-coupled anti-human capture antibody (Human Antibody Capture Kit), antigen as analyte; 1x HBS-EP+ pH 7.4 with BSA 1 mg/ml; equilibrium or kinetic Langmuir model; apparent KD; conditions: both partners purified

T1 sequence (heavy, as listed by the source): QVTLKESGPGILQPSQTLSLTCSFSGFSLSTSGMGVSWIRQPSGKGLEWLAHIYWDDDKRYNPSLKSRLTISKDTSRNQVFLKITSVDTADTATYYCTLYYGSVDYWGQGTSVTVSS

B1: WT 2J88 antibody (antibody, V domains shown)
VH: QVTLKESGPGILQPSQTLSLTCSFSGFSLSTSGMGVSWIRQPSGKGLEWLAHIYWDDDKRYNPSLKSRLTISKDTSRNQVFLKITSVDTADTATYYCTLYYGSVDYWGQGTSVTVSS
VL: DIQMTQSPASLSASVGETVTITCRASENIYSYLTWYQQKQGKSPQLLVYNAKTLAEGVPSRFSGSGSGTQFSLKISSLQPEDFGNYYCQHHYGTRTFGGGTRLEIK
notes: heavy-chain variable domain of the antibody in PDB 2J88; human IgG1 heavy constant region, from the vector pFUSEss-CHIg-hG1; light-chain variable domain of the antibody in PDB 2J88; human kappa constant region, from the vector pFUSEss-CLIg-hk; the abstract says one lambda and one kappa antibody were tested; Expressed as IgG (human IgG1 constant regions from pFUSE vectors) with the variable …
- Kd (Bee Hyaluronidase [1]): 9.2 nM

B2: L14_7 (antibody, V domains shown)
VH: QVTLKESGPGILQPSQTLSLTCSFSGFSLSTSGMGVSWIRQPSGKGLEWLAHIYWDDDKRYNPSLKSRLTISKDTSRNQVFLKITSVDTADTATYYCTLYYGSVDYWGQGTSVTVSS
VL: B1 VL with A25S, E27R, N28D, Y30K, S31D, L33I, Q70E
notes: as the heavy-chain variable domain of m1 (PDB 2J88); human IgG1 heavy constant region, from the vector pFUSEss-CHIg-hG1; as the light-chain variable domain of m1 (PDB 2J88) with a designed L1 (cluster L1-11-2, six amino acid differences) and one difference in the L4 (DE) loop; human kappa constant region, from the vector pFUSEss-CLIg-hk; kappa inferred as for m1; IgG; Computational design (RAbD) …
- Kd (Bee Hyaluronidase [1]): 0.77 nM

B3: WT 2J88 antibody Y38K (antibody, V domains shown)
VH: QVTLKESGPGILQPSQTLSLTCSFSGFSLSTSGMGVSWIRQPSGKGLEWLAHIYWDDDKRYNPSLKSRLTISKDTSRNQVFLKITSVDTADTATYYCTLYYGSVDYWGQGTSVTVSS
VL: B1 VL with Y30K
notes: as the heavy-chain variable domain of m1 (PDB 2J88); human IgG1 heavy constant region, from the vector pFUSEss-CHIg-hG1; as the light-chain variable domain of m1 (PDB 2J88) with Y38K in L1; human kappa constant region, from the vector pFUSEss-CLIg-hk; kappa inferred as for m1; IgG; Position 38 is most likely AHo numbering; source: 293F cells, transfected (pFUSE vectors), purified (rProtein A …)
- Kd (Bee Hyaluronidase [2]): 4.3 nM
